Measured values from publication PMC8298264, “Function of cofactor Akirin2 in the regulation of gene expression in model human neutrophil-like HL60 cells” (Bioscience Reports, 2021).

Test system: human HL60 cells
Assay: SWATH-MS proteomics, differential protein representation, akirin2 KO vs WT HL60 cells
Type: cell-based
Procedure: Total proteins were extracted from WT and akirin2 KO HL60 cells using the AllPrep DNA/RNA/Protein Mini Kit (Qiagen) and protein concentration was determined using the BCA Protein Assay with BSA (Sigma–Aldrich) as standard. Protein extracts (150 µg per sample, n=3 biological replicates) from each WT and KO cells were trypsin digested using the FASP Protein Digestion Kit (Expedeon Ltd., Abcam, Cambridge, U.K.) and sequencing grade trypsin (Promega, Madison, WI, U.S.A.) following manufacturer’s recommendations. The resulting peptides were finally desalted on to OMIX Pipette tips C18 (Agilent Technologies, Santa Clara, CA, U.S.A.), dried down and stored at −20 °C until mass spectrometry analysis. […] Three micrograms of each protein digest from the three biological replicates of WT and akirin2 KO HL60 cells were used for the generation of the reference spectral ion library as part of the SWATH-MS analysis.
Peptides were eluted in a 120-min gradient from 5 to 30% solvent B in solvent A followed by 15-min gradient from 30 to 60% solvent B in solvent A (solvent A: 0.1% formic acid in water, solvent B: 0.1% formic acid in acetonitrile) and directly injected into the mass spectrometer for analysis. For IDA experiments, the mass spectrometer was set to scanning full spectra (350–1400 m/z) using 250 ms accumulation time per spectrum, followed by up to 50 MS/MS scans (100–1500 m/z). Candidate ions with a charge state between +2 and +5 counts per second above a minimum threshold of 100 were isolated for fragmentation. One MS/MS spectrum was collected for 100 ms, before adding those precursor ions to the exclusion list for 15 s (mass spectrometer operated by Analyst TF 1.6, AB Sciex). Dynamic background subtraction was turned off. MS/MS analyses were recorded in high-sensitivity mode with rolling collision energy on and a collision energy spread of 5. For SWATH quantitative analysis, six independent samples (three replicates from WT and akirin2 KO HL60 cells, 5 µg each) were subjected to the cyclic DIA of mass spectra using the SWATH variable windows calculator (V 1.0, AB Sciex) and the SWATH acquisition method editor (AB Sciex), similar to established methods. […] For these experiments, a 50-ms survey scan (350–1400 m/z) was acquired at the beginning of each cycle, and SWATH–MS/MS spectra were collected from 100–1500 m/z for 70 ms at high-sensitivity mode, resulting in a cycle time of 3.6 s. Collision energy for each window was determined according to the calculation for a charge +2 ion-centered upon the window with a collision energy spread of 15. To create a spectral library of all the detectable peptides in the samples, the IDA MS raw files were combined and subjected to database search in unison using ProteinPilot software v. 5.0.1 (AB Sciex) with the Paragon algorithm. […] The detected protein threshold was set at 0.05. An independent false discovery rate (FDR) analysis, using the target–decoy approach provided by Protein Pilot (AB Sciex; https://sciex.com/products/software/proteinpilot-software), was used to assess the quality of identifications. Positive identifications were considered when identified proteins reached 1% of global FDR. […] Global normalization was performed according to the Total Area Sums (TAS) of all detected proteins in the samples. […] Heatmaps were prepared using the Heatmapper (http://www.heatmapper.ca/expression/) with average linkage and Euclidean distance measurement method.

[1] = Over-represented in KO, KO vs WT HL60 cells
[2] = SWATH-MS, akirin2 KO vs WT HL60 cells, over-represented in KO

B1: sp¦P52209¦6PGD_HUMAN (protein, UniProt P52209 1-483, looked up)
6-phosphogluconate …: MAQADIALIGLAVMGQNLILNMNDHGFVVCAFNRTVSKVDDFLANEAKGTKVVGAQSLKEMVSKLKKPRRIILLVKAGQAVDDFIEKLVPLLDTGDIIIDGGNSEYRDTTRRCRDLKAKGILFVGSGVSGGEEGARYGPSLMPGGNKEAWPHIKTIFQGIAAKVGTGEPCCDWVGDEGAGHFVKMVHNGIEYGDMQLICEAYHLMKDVLGMAQDEMAQAFEDWNKTELDSFLIEITANILKFQDTDGKHLLPKIRDSAGQKGTGKWTAISALEYGVPVTLIGEAVFARCLSSLKDERIQASKKLKGPQKFQFDGDKKSFLEDIRKALYASKIISYAQGFMLLRQAATEFGWTLNYGGIALMWRGGCIIRSVFLGKIKDAFDRNPELQNLLLDDFFKSAVENCQDSWRRAVSTGVQAGIPMPCFTTALSFYDGYRHEMLPASLIQAQRDYFGAHTYELLAKPGQFIHTNWTGHGGTVSSSSYNA
Fold Change [1]: 1.367 | Log (Fold Change) [1]: 0.1359

B2: sp¦O43396¦TXNL1_HUMAN (protein, UniProt O43396 2-289, looked up)
Thioredoxin-like protein 1: VGVKPVGSDPDFQPELSGAGSRLAVVKFTMRGCGPCLRIAPAFSSMSNKYPQAVFLEVDVHQCQGTAATNNISATPTFLFFRNKVRIDQYQGADAVGLEEKIKQHLENDPGSNEDTDIPKGYMDLMPFINKAGCECLNESDEHGFDNCLRKDTTFLESDCDEQLLITVAFNQPVKLYSMKFQGPDNGQGPKYVKIFINLPRSMDFEEAERSEPTQALELTEDDIKEDGIVPLRYVKFQNVNSVTIFVQSNQGEEETTRISYFTFIGTPVQATNMNDFKRVVGKKGESH
Fold Change [1]: 1.348 | Log (Fold Change) [1]: 0.1296

B3: sp¦Q9HB71¦CYBP_HUMAN (protein, UniProt Q9HB71 2-228, looked up)
Calcyclin-binding protein: ASEELQKDLEEVKVLLEKATRKRVRDALTAEKSKIETEIKNKMQQKSQKKAELLDNEKPAAVVAPITTGYTVKISNYGWDQSDKFVKIYITLTGVHQVPTENVQVHFTERSFDLLVKNLNGKSYSMIVNNLLKPISVEGSSKKVKTDTVLILCRKKVENTRWDYLTQVEKECKEKEKPSYDTETDPSEGLMNVLKKIYEDGDDDMKRTINKAWVESREKQAKGDTEF
Fold Change [2]: 1.407 | Log (Fold Change) [2]: 0.1482

B4: sp¦Q9BY43¦CHM4A_HUMAN (protein, UniProt Q9BY43 1-222, looked up)
Charged multivesicular body …: MSGLGRLFGKGKKEKGPTPEEAIQKLKETEKILIKKQEFLEQKIQQELQTAKKYGTKNKRAALQALRRKKRFEQQLAQTDGTLSTLEFQREAIENATTNAEVLRTMELAAQSMKKAYQDMDIDKVDELMTDITEQQEVAQQISDAISRPMGFGDDVDEDELLEELEELEQEELAQELLNVGDKEEEPSVKLPSVPSTHLPAGPAPKVDEDEEALKQLAEWVS
Fold Change [1]: 1.396 | Log (Fold Change) [1]: 0.1447

B5: sp¦P10599¦THIO_HUMAN (protein, UniProt P10599 2-105, looked up)
Thioredoxin: VKQIESKTAFQEALDAAGDKLVVVDFSATWCGPCKMIKPFFHSLSEKYSNVIFLEVDVDDCQDVASECEVKCMPTFQFFKKGQKVGEFSGANKEKLEATINELV
Fold Change [1]: 1.394 | Log (Fold Change) [1]: 0.1444

B6: sp¦P49458¦SRP09_HUMAN (protein, UniProt P49458 2-86, looked up)
Signal recognition particle 9 …: PQYQTWEEFSRAAEKLYLADPMKARVVLKYRHSDGNLCVKVTDDLVCLVYKTDQAQDVKKIEKFHSQLMRLMVAKEARNVTMETE
Fold Change [1]: 1.349 | Log (Fold Change) [1]: 0.1301

B7: sp¦P04075¦ALDOA_HUMAN (protein, UniProt P04075 2-364, looked up)
Fructose-bisphosphate …: PYQYPALTPEQKKELSDIAHRIVAPGKGILAADESTGSIAKRLQSIGTENTEENRRFYRQLLLTADDRVNPCIGGVILFHETLYQKADDGRPFPQVIKSKGGVVGIKVDKGVVPLAGTNGETTTQGLDGLSERCAQYKKDGADFAKWRCVLKIGEHTPSALAIMENANVLARYASICQQNGIVPIVEPEILPDGDHDLKRCQYVTEKVLAAVYKALSDHHIYLEGTLLKPNMVTPGHACTQKFSHEEIAMATVTALRRTVPPAVTGITFLSGGQSEEEASINLNAINKCPLLKPWALTFSYGRALQASALKAWGGKKENLKAAQEEYVKRALANSLACQGKYTPSGQAGAAASESLFVSNHAY
Fold Change [2]: 1.436 | Log (Fold Change) [2]: 0.1572

B8: sp¦P68104¦EF1A1_HUMAN (protein, UniProt P68104 2-462, looked up)
Elongation factor 1-alpha 1: GKEKTHINIVVIGHVDSGKSTTTGHLIYKCGGIDKRTIEKFEKEAAEMGKGSFKYAWVLDKLKAERERGITIDISLWKFETSKYYVTIIDAPGHRDFIKNMITGTSQADCAVLIVAAGVGEFEAGISKNGQTREHALLAYTLGVKQLIVGVNKMDSTEPPYSQKRYEEIVKEVSTYIKKIGYNPDTVAFVPISGWNGDNMLEPSANMPWFKGWKVTRKDGNASGTTLLEALDCILPPTRPTDKPLRLPLQDVYKIGGIGTVPVGRVETGVLKPGMVVTFAPVNVTTEVKSVEMHHEALSEALPGDNVGFNVKNVSVKDVRRGNVAGDSKNDPPMEAAGFTAQVIILNHPGQISAGYAPVLDCHTAHIACKFAELKEKIDRRSGKKLEDGPKFLKSGDAAIVDMVPGKPMCVESFSDYPPLGRFAVRDMRQTVAVGVIKAVDKKAAGAGKVTKSAQKAQKAK
Fold Change [2]: 1.443 | Log (Fold Change) [2]: 0.1593

B9: sp¦O75937¦DNJC8_HUMAN (protein, UniProt O75937 2-253, looked up)
DnaJ homolog subfamily C …: AASGESGTSGGGGSTEEAFMTFYSEVKQIEKRDSVLTSKNQIERLTRPGSSYFNLNPFEVLQIDPEVTDEEIKKRFRQLSILVHPDKNQDDADRAQKAFEAVDKAYKLLLDQEQKKRALDVIQAGKEYVEHTVKERKKQLKKEGKPTIVEEDDPELFKQAVYKQTMKLFAELEIKRKEREAKEMHERKRQREEEIEAQEKAKREREWQKNFEESRDGRVDSWRNFQANTKGKKEKKNRTFLRPPKVKMEQRE
Fold Change [1]: 1.352 | Log (Fold Change) [1]: 0.1309

B10: sp¦Q8WW12¦PCNP_HUMAN (protein, UniProt Q8WW12 2-178, looked up)
PEST proteolytic …: ADGKAGDEKPEKSQRAGAAGGPEEEAEKPVKTKTVSSSNGGESSSRSAEKRSAEEEAADLPTKPTKISKFGFAIGSQTTKKASAISIKLGSSKPKETVPTLAPKTLSVAAAFNEDEDSEPEEMPPEAKMRMKNIGRDTPTSAGPNSFNKGKHGFSDNQKLWERNIKSHLGNVHDQDN
Fold Change [1]: 1.373 | Log (Fold Change) [1]: 0.1375

B11: sp¦P54727¦RD23B_HUMAN (protein, UniProt P54727 1-409, looked up)
UV excision repair protein …: MQVTLKTLQQQTFKIDIDPEETVKALKEKIESEKGKDAFPVAGQKLIYAGKILNDDTALKEYKIDEKNFVVVMVTKPKAVSTPAPATTQQSAPASTTAVTSSTTTTVAQAPTPVPALAPTSTPASITPASATASSEPAPASAAKQEKPAEKPAETPVATSPTATDSTSGDSSRSNLFEDATSALVTGQSYENMVTEIMSMGYEREQVIAALRASFNNPDRAVEYLLMGIPGDRESQAVVDPPQAASTGAPQSSAVAAAAATTTATTTTTSSGGHPLEFLRNQPQFQQMRQIIQQNPSLLPALLQQIGRENPQLLQQISQHQEHFIQMLNEPVQEAGGQGGGGGGGSGGIAEAGSGHMNYIQVTPQEKEAIERLKALGFPEGLVIQAYFACEKNENLAANFLLQQNFDED
Fold Change [1]: 1.363 | Log (Fold Change) [1]: 0.1346

B12: sp¦O75792¦RNH2A_HUMAN (protein, UniProt O75792 1-299, looked up)
Ribonuclease H2 subunit A: MDLSELERDNTGRCRLSSPVPAVCRKEPCVLGVDEAGRGPVLGPMVYAICYCPLPRLADLEALKVADSKTLLESERERLFAKMEDTDFVGWALDVLSPNLISTSMLGRVKYNLNSLSHDTATGLIQYALDQGVNVTQVFVDTVGMPETYQARLQQSFPGIEVTVKAKADALYPVVSAASICAKVARDQAVKKWQFVEKLQDLDTDYGSGYPNDPKTKAWLKEHVEPVFGFPQFVRFSWRTAQTILEKEAEDVIWEDSASENQEGLRKITSYFLNEGSQARPRSSHRYFLERGLESATSL
Fold Change [2]: 1.47 | Log (Fold Change) [2]: 0.1673
